US20230340132A1, “ANTI-ADENOSINE RECEPTOR (A2aR) ANTIBODIES” (NA Biotech Corp, priority 2020, published 2023)
Several values for one entry are separate records, joined by “and”; a condition that tells them apart may be missing. Identical values can stand only once. Entries after “also recorded” stand apart in the source; their conditions may differ.

T1: human adenosine receptor A1 (Homo sapiens, UniProt P30542)
T1 construct: FLAG
T1 sequence (P30542 1-326): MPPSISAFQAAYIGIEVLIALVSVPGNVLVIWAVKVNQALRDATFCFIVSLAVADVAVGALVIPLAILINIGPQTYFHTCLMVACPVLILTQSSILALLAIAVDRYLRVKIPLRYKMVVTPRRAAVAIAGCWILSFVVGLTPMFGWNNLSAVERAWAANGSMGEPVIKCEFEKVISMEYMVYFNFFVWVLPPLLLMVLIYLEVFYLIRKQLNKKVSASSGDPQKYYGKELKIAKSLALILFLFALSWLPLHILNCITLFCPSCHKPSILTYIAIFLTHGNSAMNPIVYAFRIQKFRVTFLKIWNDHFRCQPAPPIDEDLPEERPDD

T2: human adenosine receptor A2B (Homo sapiens, UniProt P29275)
T2 construct: FLAG
T2 sequence (P29275 1-332): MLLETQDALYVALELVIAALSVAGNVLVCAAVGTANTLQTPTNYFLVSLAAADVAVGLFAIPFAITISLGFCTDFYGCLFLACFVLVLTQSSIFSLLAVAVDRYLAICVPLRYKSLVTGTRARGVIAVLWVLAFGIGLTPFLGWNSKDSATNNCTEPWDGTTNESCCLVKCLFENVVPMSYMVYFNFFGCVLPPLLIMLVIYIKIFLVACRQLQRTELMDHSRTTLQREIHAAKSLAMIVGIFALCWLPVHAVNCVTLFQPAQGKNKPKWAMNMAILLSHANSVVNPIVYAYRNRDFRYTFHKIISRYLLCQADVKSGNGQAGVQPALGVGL


How the values were obtained:
[1] = test system: HEK293T cell without exogenous adenosine receptor; assay: flow cytometry-based cell-binding assay, parental HEK293T; parameters: species or system human; settings: duplicate
Procedure: (§1) To test the specificity of the antigen binding molecules of the invention, e.g., anti-A2aR antibodies or antigen binding fragments thereof to human A2aR and not towards any of the other 3 adenosine receptor family members, a flow cytometry-based cell-binding assay was performed by Multispan Inc (Hayward, CA). HEK293T cells stably expressing various adenosine receptors, i.e., human A1R, A2bR, and A3R, and mouse A2R, generated by Multispan Inc and HEK293T parental cell lines were used in the assay. Briefly, adenosine receptor-overexpressing cell lines and HEK293T parental cell lines were incubated with 2, 10, and 50 nM of anti-human A2aR monoclonal antibodies (clones 1B5-3D7 and 3F6-9G5) and 10 and 50 nM of mouse IgG2a Isotype control at 4° C. in the dark for 60 minutes. Anti-FLAG antibody (Abcam, ab72469, 2 μg/mL) was used as positive control for cell lines over-expressing various adenosine receptors, respectively. After 3 washes with FACS buffer (PBS plus 0.1% BSA and 0.2% sodium azide), cells were stained with an anti-mouse-IgG-PE (Invitrogen, cat. P852) detection antibody for 45 minutes at 4° C. The cells were then washed 3 times with FACS buffer and analyzed on FACSort (Becton Dickinson). Data was analyzed using CellQuest Pro (Becton Dickinson).

[2] = test system: parental Expi293 cells; assay: FACS screening of hybridoma clones on parental Expi293 cells; assay type: binding; settings: antibodies from hybridoma clones
Procedure: (§2) Serum titration was performed using Fluorescence-Activated Cell Sorting (FACS) pursuant to standard procedures. Human A2aR-expressing Expi293 cells were first added to 96-well plate (1×10^5 cells per well), 50 μl of serial diluted serum (1:50, 1;150, 1:450, 1:[…], 1:12150) from each individual mouse was incubated with cells for 30 min. on ice. After washing with FACS buffer (2% Fetal bovine serum, 2 mM EDTA in PBS), Alex Fluor 647-conjugated anti mouse IgG was added and incubated for 20 min on ice. Cells were resuspending with 100 μl FACS buffer after two times wash and ready for FACS analysis (BD LSR II Flow Cytometer, HTS). […] (MFI: mean fluorescence intensity).
(§3) Primary screening of the hybridoma supernatants in the 96-well plates was performed using the same FACS procedure as described for serum titration except following changes: 1) Human A2aR-expressing Expi293 cells (expressing GFP) were mixed at 1:1 ratio with parental Expi293 (no A2aR expression) and added to 96-well plates (2×10^5 cells per well), 2) 50 μl hybridoma supernatant transferred from each well of 96-well plates was incubated with cells for 30 min. on ice.
(§4) Sub-cloning was performed by limiting dilution method. In short, the positive wells identified by FACS were seeded into 96-well plate at an average density of 1 cell/well. The […] was placed in incubator for 7-10 days to allow the growth of the cells. The growth of cells was monitored periodically. At about day 4, the wells on the plate were observed under phase contrast microscopy and the wells which appeared to have single colony growing (i.e., only one clumping of hybridomas) were recorded. The cells from the single colony wells were screed by FACS using the same procedure as described for primary screening of hybridoma when the confluence of the cell reached about 50%.

[3] = molecular target: T3, mouse adenosine receptor A2A (Mus musculus, UniProt Q60613); assay: flow cytometry-based cell-binding assay, HEK293T-mA2A; settings: duplicate
T3 construct: FLAG
T3 sequence (Q60613 whole entry): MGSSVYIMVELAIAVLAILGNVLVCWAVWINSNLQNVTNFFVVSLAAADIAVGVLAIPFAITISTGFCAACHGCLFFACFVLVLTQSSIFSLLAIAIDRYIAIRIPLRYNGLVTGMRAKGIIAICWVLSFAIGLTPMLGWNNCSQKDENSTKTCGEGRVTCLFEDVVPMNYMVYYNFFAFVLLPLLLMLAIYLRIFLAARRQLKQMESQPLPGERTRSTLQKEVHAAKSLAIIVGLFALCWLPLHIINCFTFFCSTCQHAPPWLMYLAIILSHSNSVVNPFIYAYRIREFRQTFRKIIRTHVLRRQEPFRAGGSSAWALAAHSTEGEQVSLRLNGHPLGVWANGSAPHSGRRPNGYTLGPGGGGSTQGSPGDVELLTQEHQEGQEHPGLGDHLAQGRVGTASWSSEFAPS
Procedure: as §1

[4] = molecular target: T4, human A2aR (Homo sapiens, UniProt P29274); assay: FACS binding titration on hA2aR-Expi293 cells; settings: 12-point 1:2 serial dilution starting from 7.5 ug/ml
T4 construct: expressed in transfected cells; host or cells: Expi293
T4 sequence (P29274 whole entry): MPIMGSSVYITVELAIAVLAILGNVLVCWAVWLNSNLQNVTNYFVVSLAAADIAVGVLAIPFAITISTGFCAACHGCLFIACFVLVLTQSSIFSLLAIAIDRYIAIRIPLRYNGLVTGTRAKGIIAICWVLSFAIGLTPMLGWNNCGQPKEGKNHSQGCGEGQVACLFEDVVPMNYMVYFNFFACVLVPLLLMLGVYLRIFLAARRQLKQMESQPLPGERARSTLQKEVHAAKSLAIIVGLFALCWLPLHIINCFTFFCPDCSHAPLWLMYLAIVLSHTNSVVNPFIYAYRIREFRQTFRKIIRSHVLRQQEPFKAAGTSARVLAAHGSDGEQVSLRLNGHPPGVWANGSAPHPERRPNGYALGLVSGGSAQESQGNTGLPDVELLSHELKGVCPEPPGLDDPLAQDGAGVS
Procedure: (§5) Human A2aR-expressing Expi293 cells or parental Expi293 cells were first added to 96-well plate (1×10^5 cells per well). Fifty microliters (50 μl) of 12-point 1:2 serial diluted samples starting from 7.5 ug/ml for each antibody was incubated with cells for 30 minutes on ice. After being washed with FACS buffer (2% Fetal bovine serum in DPBS), […] of Alex Fluor 633-conjugated anti mouse IgG (Life technology, Cat.A21050) or Alex Fluor 647-conjugated anti-human IgG was added and incubated for 30 minutes on ice. Cells were resuspended with 100 μl of FACS buffer after two washes. One hundred microliters 100 μl of 1:50 diluted 7-AAD for live/dead staining was added to the cell suspension, which was ready for FACS analysis (BD Accuri C6 plus or LSR II Flow Cytometer, HTS).

[5] = molecular target: T1, human adenosine receptor A1; assay: flow cytometry-based cell-binding assay, HEK293T-A1; settings: for Geo Mean: HEK293T-A1, duplicate; for binding to HEK293T-A1 relative to binding to human A2aR (in words): summary of Table 12
Procedure: as §1

[6] = molecular target: T5, human adenosine receptor A2A (Homo sapiens, UniProt P29274); assay: flow cytometry-based cell-binding assay, HEK293T-A2A; settings: for Geo Mean: HEK293T-A2A, duplicate; for binding to human A2aR (in words): summary of Table 12
T5 construct: FLAG
T5 sequence (P29274 whole entry): as above
Procedure: as §1

[7] = molecular target: T2, human adenosine receptor A2B; assay: flow cytometry-based cell-binding assay, HEK293T-A2B; settings: duplicate
Procedure: as §1

[8] = molecular target: T4, human A2aR; assay: FACS screening of hybridoma clones on human A2aR-expressing Expi293 cells; assay type: binding; settings: antibodies from hybridoma clones
Procedure: as §2, §3, §4

[9] = test system: parental Expi293 cells; assay: FACS binding titration on parental Expi293 cells; settings: 12-point 1:2 serial dilution starting from 7.5 ug/ml
Procedure: as §5

Molecule | Geo Mean ([1]; 2 nM) | Geo Mean ([1]; 10 nM) | Geo Mean ([1]; 50 nM) | binding to parental Expi293 cells (FIG. 2) [2] | Geo Mean ([3]; 2 nM) | Geo Mean ([3]; 10 nM) | Geo Mean ([3]; 50 nM) | binding to hA2aR-Expi293 (FIG. 5) [4] | Geo Mean ([5]; 2 nM) | Geo Mean ([5]; 10 nM) | Geo Mean ([5]; 50 nM) | binding to HEK293T-A1 relative to binding to human A2aR (in words) [5] | Geo Mean ([6]; 2 nM) | Geo Mean ([6]; 10 nM) | Geo Mean ([6]; 50 nM) | binding to human A2aR (in words) [6] | Geo Mean ([7]; 2 nM) | Geo Mean ([7]; 50 nM) | binding to human A2aR-expressing cells (FIG. 2) [8] | binding to parental Expi293 (FIG. 5) [9]
3F6-9G5: anti-human A2aR monoclonal antibody from mouse hybridoma clone; HCVR SEQ ID NO: 36, LCVR SEQ ID NO: 42 (antibody, V domains shown) VH: QVQLQQPGTELVKPGAPVRLSCKASGFAFTSYWMNWVRQRPGRGLEWIGRIDPSDSEAHYHHKFWGKATLTVDKSSSTVYIQLNGLTSEDSAVYYCLRSLYGKGDYWGHGTTLTVSS VL: DVLMTQTPLSLSVRLGDQASISCRSSQSLVHRNGNTYLEWYLQRPGQSPKLLIYKVSNRFSGVPDRFSGSGSGTDFTLKISRVEAEDLGVYYCYQGSHVPLTFGSGTKLEIK | 3.98 and 4.33 | 4.01 and 4.27 | 4.19 and 6.16 | not to parental Expi293 cells | 2.9 and 3.08 | 3.7 and 3.25 | 4.98 and 4.76 | strong dose-dependent specific binding; also recorded: specifically binds | 8.35 and 8.81 | 15.26 and 15.56 | 22.97 and 22.51 | significantly weaker | 112.47 and 109.2 | 273.51 and 290.29 | 270 and 289.37 | specifically bound to human A2aR | 3.13 and 2.8 | 7.27 and 3.74 | specific binding | not to parental Expi293
anti-human A2aR monoclonal antibody 1B5-3D7 (antibody, V domains shown, Tested as whole mouse IgG2a / kappa, purified from hybridoma supernatant or made recombinantly in Expi293 cells; also called 1B-3D7) VH: QVQLQQPGTELVKPGAPVKLSCKTSGFTFTRFWMNWVRQRPGRGLEWIGRIDPYDSETQYNHKFWDRATLTVDKSSSTVYIQLSSLTSEDSAVYYCGRSLYGKGDYWGQGTTLTVSS VL: DVLMTQSPLSLPVSLGDQASISCRSSQSIVHSNGNTYLEWYLQRPGQSPKLLIYKVSNRFSGVPDRFSGSGSGTYFTLRISRVEAEDLGIYYCFQGSHVPLTFGSGTTLELK | 3.69 and 4.11 | 5.42 and 4.07 | 5.24 and 4.96 | not to parental Expi293 cells | 2.96 and 3.82 | 4.13 and 6.16 | 3.48 and 6.03 | strong dose-dependent specific binding; also recorded: specifically binds | 10.15 and 11.83 | 18.4 and 24.97 | 27.59 and 30.66 | significantly weaker | 97.49 and 95.04 | 261.79 and 221.91 | 260.67 and 377.56 | specifically bound to human A2aR | 5.42 and 3.8 | 3.42 and 2.79 | specific binding | not to parental Expi293
